Assay results reported in patent US20250171520A1.

Molecular target: human CD63 (human) (UniProt P08962)
Assay: flow cytometry, HEK293 cells endogenously expressing human CD63

human CD63 (human), sequence (P08962 2-238 limits assumed): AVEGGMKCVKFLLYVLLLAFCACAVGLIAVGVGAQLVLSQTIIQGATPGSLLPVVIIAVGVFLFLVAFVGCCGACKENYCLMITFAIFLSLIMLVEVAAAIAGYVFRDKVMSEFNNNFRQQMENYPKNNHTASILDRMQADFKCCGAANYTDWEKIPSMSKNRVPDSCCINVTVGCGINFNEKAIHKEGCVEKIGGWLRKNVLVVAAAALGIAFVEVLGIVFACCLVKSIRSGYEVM

HEK293 (S/N), MFI of antibody over wells with no antibody | Substance
1.4 | Isotype Control 1 (antibody)
1.5 | Isotype Control 2 (antibody)
